Reference: US20230416410A1 (ZOETIS SERVICES, published 2023)
Read-outs that look alike come from different tables or passages of the source.

T1: recombinant bovine FcgR2 (bovine, UniProt Q28110 43-225, limits assumed, biotin on the BAP tag (BirA))
T1 construct: also called bFcgR2; bFcgRII
T1 sequence: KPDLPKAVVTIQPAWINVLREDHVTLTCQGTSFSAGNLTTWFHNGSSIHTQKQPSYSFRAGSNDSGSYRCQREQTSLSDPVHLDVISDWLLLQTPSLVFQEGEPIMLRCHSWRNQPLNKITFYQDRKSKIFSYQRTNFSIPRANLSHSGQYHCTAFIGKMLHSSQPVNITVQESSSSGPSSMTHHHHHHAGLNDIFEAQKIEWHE

T2: recombinant bovine FcgR3 (bovine, UniProt P79107 17-208, limits assumed, biotin on the BAP tag (BirA))
T2 construct: also called bFcgR3; bFcgRIII
T2 sequence: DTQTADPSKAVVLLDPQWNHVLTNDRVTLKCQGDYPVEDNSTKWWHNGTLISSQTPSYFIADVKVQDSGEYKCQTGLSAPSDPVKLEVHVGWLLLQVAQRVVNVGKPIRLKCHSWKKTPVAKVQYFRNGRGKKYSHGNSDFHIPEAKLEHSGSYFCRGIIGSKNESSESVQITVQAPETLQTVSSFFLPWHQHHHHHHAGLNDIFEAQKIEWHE


What was measured:
recombinant bovine FcgR2 [1] = target: T1, recombinant bovine FcgR2; test: SPR Biacore, biotinylated receptor on SA sensor, pH 7.4, 15 C
Procedure: (§1) A Biacore SPR binding assay was designed to test the affinity of bovine IgG subclasses to bFcgR1, bFcgR2 and bFcgR3. All reported KD's were measured by Biacore (Cytiva, Marlborough, MA, USA) using series S SA sensor. Biotinylated-bovine FcgR1, R2 and R3 were captured on the sensor surface using a modified SA capture method to reach the desired surface density. 10 mM HEPES, 150 mM NaCl, 3 mM EDTA, 0.05% v/v surfactant P20, pH7.4 buffer was used as the running and titration buffer. Various concentrations of bovine CTLA4-Fc fusions or mAbs were titrated and flowed over the receptor surface and affinities were determined using Biacore T200 Evaluation software (Cytiva, Marlborough, MA, USA) with 1:1 binding model. The method of double referencing has been applied where the reference flow cell was subtracted from the flow cell containing immobilized receptors and blank runs containing buffer only were subtracted out from all runs. Flow cells were regenerated using 10 mM Glycine pH1.5. Runs were performed at 15° C.
Biacore methods for bFcgR1, R2, and R3 were performed as described in Examples above. […] Although the two allotypes have different KDs for bFcgR2 and bFcgR3, both wildtype allotypes do bind. All of the mutations, bIgG3Win, bIgG3WinSAS, bIgG3SAS and bIgG3SAP for both the a and b allotypes knocked down binding to bFcgR1, bFcgR2 and bFcgR3 to negligible affinities. Thus, for knocking out receptor binding, the two allotypes compare similarly.

[2] = target: T3, complement component C1q (in bovine complement preserved serum) (bovine, UniProt Q5E9E3 23-244; Q2KIV9 23-247); test: cell-based or functional assay
T3 sequence (Q5E9E3 23-244, chain 1 of 2): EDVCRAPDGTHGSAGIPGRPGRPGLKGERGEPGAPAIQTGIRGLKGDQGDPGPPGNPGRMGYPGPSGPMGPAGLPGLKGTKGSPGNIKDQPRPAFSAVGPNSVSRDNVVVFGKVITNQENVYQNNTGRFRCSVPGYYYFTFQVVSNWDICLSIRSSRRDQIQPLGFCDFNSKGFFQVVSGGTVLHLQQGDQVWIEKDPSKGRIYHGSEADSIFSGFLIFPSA
T3 sequence (Q2KIV9 23-247, chain 2 of 2): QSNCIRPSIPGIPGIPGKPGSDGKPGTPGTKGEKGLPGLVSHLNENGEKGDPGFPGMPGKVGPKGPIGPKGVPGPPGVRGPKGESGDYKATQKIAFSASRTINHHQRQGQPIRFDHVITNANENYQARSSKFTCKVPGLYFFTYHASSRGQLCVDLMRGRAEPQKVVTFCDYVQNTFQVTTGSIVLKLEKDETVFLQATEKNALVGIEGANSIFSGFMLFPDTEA

recombinant bovine FcgR3 = target: T2, recombinant bovine FcgR3; test: SPR Biacore, biotinylated receptor on SA sensor, pH 7.4, 15 C
Procedure: as §1
(§2) The ability to knock out binding to bovine Fc gamma receptors was evaluated by comparing SPR Biacore bFcgR affinity of bIgG1a and bIgG1b wildtype Fc to the bIgG1a and bIgG1b mutations, described above. All mutations made to bIgG1 are identical for the a and b allotypes. Biacore methods for bFcgR1, R2, and R3 were performed as described in Example 1.

recombinant bovine FcgR1 = target: T4, recombinant bovine FcgR1 (bovine, biotin on the BAP tag (BirA)); test: as above
T4 construct: also called bFcgR1; bFcgRI
Procedure: as §1, §2

recombinant bovine FcgR2 [3] = target: T1, recombinant bovine FcgR2; test: as above; remark: listed apart in the source
Procedure: as §1, §2

[4] = target: T3, complement component C1q (in bovine …); test: cell-based or functional assay; remark: listed apart in the source

Row | binding result (recombinant bovine FcgR2 [1]) | Kd (recombinant bovine FcgR1) [nM] | binding result (recombinant bovine FcgR2 [3]) | Binder | other results
1 | no binding | – | – | CTLA4 Fc bIgG3bSAP (Fc fusion, No linker) DMHVAQPAVVLASSRGVASFVCEYGSSGNAAEVRVTVLRQAGSQMTEVCAATYTVEDELAFLDDSTCTGTSSGNKVNLTIQGLRAMDTGLYICKVELMYPPPYYVGMGNGTQIYVIDPEPCPDSDTARRPVPTTPKTTIPPGKPTTQESEVEKTPCQCSKCPEPLGGLSVFIFPPKPKDTLTISGTPEVTCVVVDVGQDDPEVQFSWFVDDVEVHTARTKPREEQFNSTYRVVSALRIQHQDWLQGKEFKCKVNNKGLSAPIVRTISRTKGQAREPQVYVLAPPREELSKSTLSLTCLITGFYPEEIDVEWQRNGQPESEDKYHTTAPQLDADGSYFLYSRLRVNKSSWQEGDHYTCAVMHEALRNHYKEKSISRSPGK | –
2 | no binding | – | – | CTLA4 Fc bIgG3bSAS (Fc fusion, No linker) DMHVAQPAVVLASSRGVASFVCEYGSSGNAAEVRVTVLRQAGSQMTEVCAATYTVEDELAFLDDSTCTGTSSGNKVNLTIQGLRAMDTGLYICKVELMYPPPYYVGMGNGTQIYVIDPEPCPDSDTARRPVPTTPKTTIPPGKPTTQESEVEKTPCQCSKCPEPLGGLSVFIFPPKPKDTLTISGTPEVTCVVVDVGQDDPEVQFSWFVDDVEVHTARTKPREEQFNSTYRVVSALRIQHQDWLQGKEFKCKVNNKGLSASIVRTISRTKGQAREPQVYVLAPPREELSKSTLSLTCLITGFYPEEIDVEWQRNGQPESEDKYHTTAPQLDADGSYFLYSRLRVNKSSWQEGDHYTCAVMHEALRNHYKEKSISRSPGK | –
3 | no binding | – | – | CTLA4 Fc bIgG3bWin (Fc fusion, No linker) DMHVAQPAVVLASSRGVASFVCEYGSSGNAAEVRVTVLRQAGSQMTEVCAATYTVEDELAFLDDSTCTGTSSGNKVNLTIQGLRAMDTGLYICKVELMYPPPYYVGMGNGTQIYVIDPEPCPDSDTARRPVPTTPKTTIPPGKPTTQESEVEKTPCQCSKCPEAAGALSVFIFPPKPKDTLTISGTPEVTCVVVDVGQDDPEVQFSWFVDDVEVHTARTKPREEQFNSTYRVVSALRIQHQDWLQGKEFKCKVNNKGLPAPIVRTISRTKGQAREPQVYVLAPPREELSKSTLSLTCLITGFYPEEIDVEWQRNGQPESEDKYHTTAPQLDADGSYFLYSRLRVNKSSWQEGDHYTCAVMHEALRNHYKEKSISRSPGK | CDC EC50 Value [2]: 0.062 µg/mL
4 | no binding | – | – | CTLA4 Fc bIgG3bWinSAS (Fc fusion, No linker) DMHVAQPAVVLASSRGVASFVCEYGSSGNAAEVRVTVLRQAGSQMTEVCAATYTVEDELAFLDDSTCTGTSSGNKVNLTIQGLRAMDTGLYICKVELMYPPPYYVGMGNGTQIYVIDPEPCPDSDTARRPVPTTPKTTIPPGKPTTQESEVEKTPCQCSKCPEAAGALSVFIFPPKPKDTLTISGTPEVTCVVVDVGQDDPEVQFSWFVDDVEVHTARTKPREEQFNSTYRVVSALRIQHQDWLQGKEFKCKVNNKGLSASIVRTISRTKGQAREPQVYVLAPPREELSKSTLSLTCLITGFYPEEIDVEWQRNGQPESEDKYHTTAPQLDADGSYFLYSRLRVNKSSWQEGDHYTCAVMHEALRNHYKEKSISRSPGK | –
5 | – | 0.463 | – | CTLA4 Fc bIgG1b (Fc fusion, No linker; also called bIgG1b wildtype; CTLA4 Fc bIgG1b wildtype) DMHVAQPAVVLASSRGVASFVCEYGSSGNAAEVRVTVLRQAGSQMTEVCAATYTVEDELAFLDDSTCTGTSSGNKVNLTIQGLRAMDTGLYICKVELMYPPPYYVGMGNGTQIYVIDPEPCPDSDDPTCKPSPCDCCPPPELPGGPSVFIFPPKPKDTLTISGTPEVTCVVVDVGHDDPEVKFSWFVDDVEVNTATTKPREEQFNSTYRVVSALRIQHQDWTGGKEFKCKVHNEGLPAPIVRTISRTKGPAREPQVYVLAPPQEELSKSTVSLTCMVTSFYPDYIAVEWQRNGQPESEDKYGTTPPQLDADSSYFLYSKLRVDRNSWQEGDTYTCVVMHEALHNHYTQKSTSKSAGK | Kd (recombinant bovine FcgR3): 13.7 nM; Kd (recombinant bovine FcgR2 [3]): 2.48 nM; CDC EC50 Value [4]: 0.036 µg/mL
6 | – | – | no binding | CTLA4 Fc bIgG1bSAP (Fc fusion, No linker) DMHVAQPAVVLASSRGVASFVCEYGSSGNAAEVRVTVLRQAGSQMTEVCAATYTVEDELAFLDDSTCTGTSSGNKVNLTIQGLRAMDTGLYICKVELMYPPPYYVGMGNGTQIYVIDPEPCPDSDDPTCKPSPCDCCPPPELPGGPSVFIFPPKPKDTLTISGTPEVTCVVVDVGHDDPEVKFSWFVDDVEVNTATTKPREEQFNSTYRVVSALRIQHQDWTGGKEFKCKVHNEGLSAPIVRTISRTKGPAREPQVYVLAPPQEELSKSTVSLTCMVTSFYPDYIAVEWQRNGQPESEDKYGTTPPQLDADSSYFLYSKLRVDRNSWQEGDTYTCVVMHEALHNHYTQKSTSKSAGK | –
7 | – | 3.73 | – | CTLA4 Fc bIgG1bWin (Fc fusion, No linker) DMHVAQPAVVLASSRGVASFVCEYGSSGNAAEVRVTVLRQAGSQMTEVCAATYTVEDELAFLDDSTCTGTSSGNKVNLTIQGLRAMDTGLYICKVELMYPPPYYVGMGNGTQIYVIDPEPCPDSDDPTCKPSPCDCCPPPEAAGAPSVFIFPPKPKDTLTISGTPEVTCVVVDVGHDDPEVKFSWFVDDVEVNTATTKPREEQFNSTYRVVSALRIQHQDWTGGKEFKCKVHNEGLPAPIVRTISRTKGPAREPQVYVLAPPQEELSKSTVSLTCMVTSFYPDYIAVEWQRNGQPESEDKYGTTPPQLDADSSYFLYSKLRVDRNSWQEGDTYTCVVMHEALHNHYTQKSTSKSAGK | Kd (recombinant bovine FcgR2 [3]): 3.24 nM; CDC EC50 Value [4]: 0.015 µg/mL
8 | – | – | no binding | CTLA4 Fc bIgG1bSAS (Fc fusion, No linker) DMHVAQPAVVLASSRGVASFVCEYGSSGNAAEVRVTVLRQAGSQMTEVCAATYTVEDELAFLDDSTCTGTSSGNKVNLTIQGLRAMDTGLYICKVELMYPPPYYVGMGNGTQIYVIDPEPCPDSDDPTCKPSPCDCCPPPELPGGPSVFIFPPKPKDTLTISGTPEVTCVVVDVGHDDPEVKFSWFVDDVEVNTATTKPREEQFNSTYRVVSALRIQHQDWTGGKEFKCKVHNEGLSASIVRTISRTKGPAREPQVYVLAPPQEELSKSTVSLTCMVTSFYPDYIAVEWQRNGQPESEDKYGTTPPQLDADSSYFLYSKLRVDRNSWQEGDTYTCVVMHEALHNHYTQKSTSKSAGK | –
9 | – | – | no binding | CTLA4 Fc bIgG1bWinSAS (Fc fusion, No linker) DMHVAQPAVVLASSRGVASFVCEYGSSGNAAEVRVTVLRQAGSQMTEVCAATYTVEDELAFLDDSTCTGTSSGNKVNLTIQGLRAMDTGLYICKVELMYPPPYYVGMGNGTQIYVIDPEPCPDSDDPTCKPSPCDCCPPPEAAGAPSVFIFPPKPKDTLTISGTPEVTCVVVDVGHDDPEVKFSWFVDDVEVNTATTKPREEQFNSTYRVVSALRIQHQDWTGGKEFKCKVHNEGLSASIVRTISRTKGPAREPQVYVLAPPQEELSKSTVSLTCMVTSFYPDYIAVEWQRNGQPESEDKYGTTPPQLDADSSYFLYSKLRVDRNSWQEGDTYTCVVMHEALHNHYTQKSTSKSAGK | –
10 | – | 70.4 | – | CTLA4 Fc bIgG1bWinSS (Fc fusion, No linker) DMHVAQPAVVLASSRGVASFVCEYGSSGNAAEVRVTVLRQAGSQMTEVCAATYTVEDELAFLDDSTCTGTSSGNKVNLTIQGLRAMDTGLYICKVELMYPPPYYVGMGNGTQIYVIDPEPCPDSDDPTCKPSPCDCCPPPEAAGAPSVFIFPPKPKDTLTISGTPEVTCVVVDVGHDDPEVKFSWFVDDVEVNTATTKPREEQFNSTYRVVSALRIQHQDWTGGKEFKCKVHNEGLPSSIVRTISRTKGPAREPQVYVLAPPQEELSKSTVSLTCMVTSFYPDYIAVEWQRNGQPESEDKYGTTPPQLDADSSYFLYSKLRVDRNSWQEGDTYTCVVMHEALHNHYTQKSTSKSAGK | –
